Results on three molecules are retold here after article PMC6212770 (Nucleic Acids Research, 2018).

Data set [1] deals with the molecule itself. Description: crystal structure; HermesΔ co-crystallised with annealed DNA(C:G) or DNA(A:T) oligonucleotides, hanging drops at 4°C, with or without a soak in 8 mM CaCl2 or MnCl2; four structures at 2.85-3.2 Å.
Data set [2] concerns the target T1, HermesΔ transposase (UniProt Q25438 79-612, C519S;del497-516).
T1 sequence: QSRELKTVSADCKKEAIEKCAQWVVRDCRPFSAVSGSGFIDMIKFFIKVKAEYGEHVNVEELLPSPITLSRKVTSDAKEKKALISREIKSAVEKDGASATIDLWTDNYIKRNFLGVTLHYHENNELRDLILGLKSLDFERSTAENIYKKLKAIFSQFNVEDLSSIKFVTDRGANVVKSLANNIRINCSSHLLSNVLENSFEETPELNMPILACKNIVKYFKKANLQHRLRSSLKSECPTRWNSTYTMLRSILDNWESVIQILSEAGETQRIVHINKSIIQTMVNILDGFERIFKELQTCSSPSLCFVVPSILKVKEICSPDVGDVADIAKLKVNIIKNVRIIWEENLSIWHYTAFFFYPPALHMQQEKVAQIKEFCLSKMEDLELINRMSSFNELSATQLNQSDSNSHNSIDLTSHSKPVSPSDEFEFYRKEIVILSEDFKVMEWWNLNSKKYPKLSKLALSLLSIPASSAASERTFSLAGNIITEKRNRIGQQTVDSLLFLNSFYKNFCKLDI
Description: X-ray crystallography; 8 mM Mn2+ soak, 48 h; two Mn2+ in active site, third Mn2+ at N185; Complex dialyzed at 4°C in 25 mM HEPES pH 7.5, 0.3 mM TCEP, 0.5 M then 250 mM NaCl, with or without 5 mM MgCl2; DNA:protein 1:1.05 as printed.

In data set [3] the target is T1, HermesΔ transposase. Description: X-ray crystallography; no metal ions; Complex dialyzed at 4°C in 25 mM HEPES pH 7.5, 0.3 mM TCEP, 0.5 M then 250 mM NaCl, with or without 5 mM MgCl2; DNA:protein 1:1.05 as printed.

B1: Hermes_(79-612Δ497-516) (enzyme, Musca domestica, UniProt Q25442 79-612, looked up)
chain: QSRELKTVSADCKKEAIEKCAQWVVRDCRPFSAVSGSGFIDMIKFFIKVGAEYGEHVNVEELLPSPITLSRKVTSDAKEKKALISREIKSAVEKDGASATIDLWTDNYIKRNFLGVTLHYHENNELRDLILGLKSLDFERSTAENIYKKLKAIFLQFNVEDLSSIKFVTDRGANVVKSLANNIRINCSSHLLSNVLENSFEETPELNVPILACKNIVKYFKKANLQHRLRSSLKSECPTRWNSTYTMLRSILDNWESVIQILSEAGETQRIVHINKSIIQTMVNILDGFERIFKELQTCSSPSLCFVVPSILKVKEICSPDVGDVADIAKLKVNIIKNVRIIWEENLSIWHYTAFFFYPPALHMQQEKVAQIKEFCLSKMEDLELINRMSSFNELSATQLNQSDSNSHNSIDLTSHSKPVSPSDEFEFYRKEIVILSEDFKVMEWWNLNSKKYPKLSKLALSLLSIPASSAASERTFSLAGNIITEKRNRIGQQTVDSLLFLNSFYKNFCKLDI
As to B1, the binding result in data set [1] is listed as “binds”.

B2: DNA(A:T) (dsDNA)
DNA 1: GCGTGAA
DNA 2: AGAGAACAACAACAAG
DNA 3: CTTGTTGTTGTTCTCTGGTTCACGC
As for B2, the binding result in the data set with HermesΔ transposase [2] was “binds”.

B3: DNA(C:G) (dsDNA)
DNA 1: GCGTGAC
DNA 2: AGAGAACAACAACAAG
DNA 3: CTTGTTGTTGTTCTCTGGGTCACGC
For the molecule B3, the binding result in the data set with HermesΔ transposase [3] was “binds”.
